According to the domain aggregation screens of Martell et al. (2025):

Test: soluble fraction after stress (log2 fold change); higher = more stays soluble; pooled small domains, quantitative proteomics
Conditions: stress: 75 degC
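Further: 20 min heating vs room temperature control held 20 min.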

| Sequence | soluble fraction (log2) |
| --- | --- |
| HMTDEEFSRIVKYTAVRYGINLYHKKVMVEGRLSNYLAANGFKSYTEYMDRVEADYTGQEAQNLINILTT | -2.53 |
| HMTDFDPDGREKLIKVQKALHFNNHQLADALRVGQATFSSYIYGRVAAGVPVRVVKAAEDLLKNSKATV | -0.531 |
| HMTDFDWSLFTQQLKRFNLFLSYDDREKLQTFQTLYGLNELDLAEYVAKASAGEKNGLNFNYLRQLINKEK | -1.46 |
| HMTDFNTFSDAIIAAVGSRASGLKVVDNAVSVMVDVSGLNEDQRVEIEADVRAAAEHAGAQSVRIMLT | -0.58 |
| HMTDLALHIGKTLRELRQRRGWSLDKTAQATGVSKAMLGQIERGESSPTVVTLWRISSGLQASFSEFLPP | -3.69 |
| HMTDLDVAVTMTVALEEAVNGATRRVRLPNGKELNVKIPAGVAAGQQIRLKGQGETAPGHRPGDVLITVNI | -0.712 |
| HMTDLQNDIQAFNLKKMSYQHETKKLEEKRNPEKLEKLEQDIQALYLRIMENPNMRAFDSAKQALYLQIM | -0.948 |
| HMTDLVVGLAGITLEPLRPAGKAEFNGSVVDVVSLGDYIEKSTAIQIVEIEGNRIVVHHGED | -0.865 |
| HMTDQYEVQNLVGLTVREAQEKEGVKDIFEVREVGSEFSAEYDAGLIVRQSPDAGEQRKGEGLVIEVWVSA | 0.106 |
| HMTDSLELADLLRRAIITGEYKPRERLVEMELAQKYSVSRTPVREALKHLEALGLVKMERYKGAMVAD | -0.911 |
| HMTDSQLVEAENHVALRQAMAHLGPRERELIGLYYFEEQSQTQIAARFGVSQMQVSRWLTSAVGRIRGQMA | 0.209 |
| HMTDWNTVEKETLSAIQKVLSGQASWIDLSPADHSIRHMQHEMVQQAGLISQSYGKEPMRRIRIYQNP | -0.039 |
| HMTEDADIERRLTGILASAGWYRSLAVEVKEGIVYLDGATASGNHRDWAGSLAAKTEGVVAVVNRIEVQP | -1.86 |
| HMTEDIAVRILEFLEDNNGFYALNDKTPSEKIHDLFGVSKKKFKIALGGLYKQRLITVSDAGVTLVK | -1.67 |
| HMTEDTPIIVERVVADIDENVVAIVRKFKDAFKSITAQREIKKKLRSILWVNYQIKDQEVFDKAYQYIEMY | 0.241 |
| HMTEEDVVIFSGLSDRDLKMVQTELANSGIKYTLPTSGTVSVPNSEIARAQMVLAMAGIPRS | 0.246 |
| HMTEEVIIQNYIGKNFNDVRDELEAKGITVDEPNMKYSDEFKENTIMAQSIKPGQPLKPGGFNSIKFDVS | -0.0167 |
| HMTEFFNMQDMFYFKLTGDVTSKERRQSLGKILGIGYGNAAQMVSRLNNYGITKEEFTNAINEIEKQMEAG | -0.715 |
| HMTEISGIEKFLASGAINGIGPAMAKKIVAEFGEKTLEIIAKSPNELLKVPGIGKKTAEKISTSYLEQ | -0.04 |
| HMTEKEEERTEDLNYYRLNLISMLKSSYPEYLDDEEFISNRSQEAAEAFEDAVRSGSNYLDASAESNRTLY | -0.229 |
| HMTEKIRLTVDEAGKNQRVDKYISTLLTQFSRSSIKTWIETGNILLDNTRTKPRTLLSPGQVIDIQPRFED | -1.09 |
| HMTEKIVFNIDGQTGRIDKILADFMTGTSRSQIQAWVKDGNLMVNDKAVKSNYKVQDGDLLELTIPEPEQ | -0.284 |
| HMTELIEDYVELIGDLIRHRGEARAADIANRMAVSQATVSKMIRRLNELGLVTSKPYRSLFLTDEGQKMAE | -0.363 |
| HMTELLTPKQRQVFELALREGYYDVPRRTSITEMARLLGVAKSTLSAQMHRMEATVMSTFAEEIRKQ | -2.01 |
| HMTENIPPVKIEEMRQKWQDIVLLHGVTSGRKIKSGQATYIWLYRNDQNWLLTFNSRHLSQPQV | 0.232 |
| HMTEPKILTAEESQRLDLILVQQWPELGRRALRELVQQGGVRINGELALKAGQYVQAGERVEVAVP | 0.232 |

| Sequence | soluble fraction (log2) |
| --- | --- |
| HMTEQKNNEQQNAVNEKKQALKQLMEKGKEKGSLSYNEVNALLDKLEFTEDQKAIVYDQLHSEDIELQ | 0.3 |
| HMTEQLTLVGKTGVTTTDLRPSGKVEVDGKRYDAVADNGAFISKGAHIKVVRYVTGQVYVVPTD | -0.0624 |
| HMTERIRLHDDIGSWVEKHGATRSALIPVLQGIQRSYNEISEYAMQEVADRLDIHPVEVYSVVSFYSF | 0.307 |
| HMTESFEFTMNDLVQNNLIMGSGAKERRIAVGEALGIGYTNAKQFLSRLNHYGITRKEFDDEIEKVNQN | -0.311 |
| HMTETEIVIGGKYRHYKGGEYELVSIVKHSETLEELVIYKSLSTGEMWARPKSLFVGLVDGQPRYTL | -2.22 |
| HMTETIPVSERLFRYLFEEKGKRVQKIQQTSHARVRMERSPYSVVVSGTKDAVEAAMESLKATEKELLEA | -0.161 |
| HMTETPDDLLAALKKNKKAQATFDAFSPSNKKEYILWITEAKTEATRTKRLETAIEWMSEGKARNW | -0.579 |
| HMTETTTVPKLKGLTKDEAEDAAKSSKIKLEFIDEISKTVEAGVIIKQEKDEGETVNAGDTVKVYVSIGT | 0.472 |
| HMTEWSIHEVAQRSGVTTRTLRHYDAIGILSPTRTGANGYRYYGPEALVRLQRILLLRDLGLALSDIAE | -3.82 |
| HMTEYFTIESQEGERIDRYLSEELEDKSRSYIQKLIRDGHVLVDGKTVKAGYRLVAGDNIAITLPEI | -0.132 |
| HMTFAPTAIPSLTRPMEELMSWSFTPNEAFILSRINGLWDVRSIAKISPFPEGEVLRVFEKLHDGGLIRW | -3.6 |
| HMTFNEPSPKEIMDYSLSRGYKVDADAFIDFYRGKAKAYGKEGLWLDGRGRLVKDWRAKLRVVWFKDENKL | -1.36 |
| HMTGDIGAEAAKAAALAHAGVTESQTAKMKVDRDWDDGRLEYDVEFDVGRTEYEYTIDGVTGAVLEYEQDI | 0.0252 |
| HMTGDIIKQERKKKNLTQIELAKKVGISRNALINYEAGTRIPPISVQLKLADVLGIDILDLK | -1.64 |
| HMTGDISRALDQLPADMRTVLILYALEKQRYEDIAQITGVSVGTVKSRLNRARQKLAAILANQREQNE | -1.49 |
| HMTGDNQTIGGGGFHHVAIRAHDFDASVKFYGETLGFREKIAWGEGDKRAIMMDTGDGNYIEIF | 0.0318 |
| HMTGEDIKKVILREYAREKSLLSIFHELSKVNSNVTLEVIKDIITNIDKLPNDLLQYFKEESSFYQKNKN | -1.46 |
| HMTGGIWVQIQGAVERPGVYSLPRDSRLKDLLEAAGGFGRDADTEKVNQAARLEDGAMYRVPRQGEG | 0.49 |
| HMTGGLLVHVAGAVGAPGVVSLPEGARVVDAIEAAGGAREDADTDQLNLARPVVDGEQVRVPVVGEVLE | -0.00946 |
| HMTGINMSYEEYKAMADIIVPLIKAGHSPYHIVTNHPELNISEKTLYNYIENGIFREFGLLDINL | -1.59 |
| HMTGIRVYPNPTSSELRFSVATDAALYDATGARLRVVRGSDMMDIRDLASGTYYVRFADGSTQSVVVT | -0.755 |
| HMTGKLGKIILQPKQTVYGITKKYQISESELRRLNPQLDSHLKIGDEVILPAENIKKFGGNQPVAVS | 0.268 |
| HMTGKTTLEYLNPLLERGIPVWDYLAKASGKAKEEVQEMVSKGLVPGAEAAKAIADYMGAEFAGSMA | -0.0343 |
| HMTGKVKWYDADKGFGFVTEDGGRDVYVRKSALPQGVETLKAGQRLEFGIAEGRRGPQALSVR | -0.0771 |
| HMTGLFSPTEQTRHSKTGATLYSVKLAERIERNAFQSLKKRAKEHDGYYSSFTRSFLFDTPEDAEAFRGT | -0.371 |
| HMTGMEASLSKLLQGEQFADLRKALIDKGIRKLEAFKRLNLWVFMNRNRLYSIGQRQTVYSTLQRALASE | -0.0934 |

| Sequence | soluble fraction (log2) |
| --- | --- |
| HMTGREIDQLFSVVNDLKAKGVGMVFISHHLDEIARIADSVSVLRDGGFVAEVPASTPEKKLVTLMVGRDI | -0.228 |
| HMTGWINVDKNWYYMNNSGSMARGMINVNNVSYYLDENGKMLSNTTVNVNGTDYRIDASGAMSQI | -0.182 |
| HMTHEIKIKSHSLFASEGTKYQWYLNNIKINDATSQELEITSPGIYKLEMTNFDGDVIEKQIIVGLTNS | -1.91 |
| HMTHHGHSIKRIRDMLGIKQETLAAELNMTQQAFSKLEQKEQIEDEMLDKIAKILHVSTEALKT | 0.0102 |
| HMTHPAHLARIGALIRSARQHEGLTQAQLAELLGTSQSAIHRIEQGGQNITLDMLTRISAALDSEIVTIG | -1.51 |
| HMTHPQVEAYLDDLARMLADIDPGERDDILASVREHLDAEIAAGHGSDAVVNATLLRLGPPEQVAAAARTN | -0.0131 |
| HMTIAFPSNDVDAVVGYFESRGFDRTASISTATVILQQAKIDGVKVFELIDTLQGMDKVQLSYIVTEILN | 0.0608 |
| HMTIATLGERIRKLRKERGLTLAELAGDKLSKGMLSLIENNRAKPSMESLEYIAKRLGVEPAELLE | 0.0696 |
| HMTIENTDTFLETLWEQVQRASVDENGIITSRVLIWDEGTKLDEILSWFDKRHSLGALYLQFG | -2.66 |
| HMTIFGWQTDETGKWYRNADGTFFEAGWKEIDGAKYYFDENGYVKTGWLELDGKDYYFDEEGRYDSSKVR | 0.299 |
| HMTIGLLISKARTNSGLTQAELATRAGTSQAAIARYESDRVSPSVSTLERVLRAAGEELVISSS | -0.209 |
| HMTINPFSTLAVRELEILHYLLNGHRTKEIATNLGLKMNTVSTIKSNIFEKVKADSFTHLLQLAHVHQIS | -1.07 |
| HMTIQNSILDEIPNIGASRKRAILEAFGSVHRLRKASPEMISAKVEGIGPEMAQAIHDYLVKHPAT | 0.066 |
| HMTISAQAITPRLEVIKNFVLMEEWDAAQTQLEKLRSFTEIWSLDPLFSAMKKKDGQKISDWITGFIKDNM | -2.39 |
| HMTISDEAMQAGRDAFIQALVAMGAEKNADAMASIEKALSADPGNKEYLATRDLIKKSMGMKK | 0.981 |
| HMTISGSDLKAQREALNIPLERIAKETRIRLSILQDLEDEEYSELSSSAQTKGFLRLYADYLSSHKQRLG | -1.06 |
| HMTITDDETHKVLEEGASRMSEGLTFRDLVDLDRLHLTARGVIQKVLNENRIDADVDTIANMAQKLVARVS | -0.0881 |
| HMTKAEVLLDLQQRIISEEFLPGSWLVERDLSSEYGLSRTPIREILNKLVILGLISVQKNRGYQVR | -1.29 |
| HMTKAILTANDVRNGDIVFWTADQRWSTSIDDAAIGYGKDDTDQLADAGKQAEAANTVVGAYLIALR | -0.102 |
| HMTKASEELYFRLKEELGTGVIVEHKKYGEGVVTQLDDRLVHIMFQDDTLRMMDLKILANAGLLKVK | -1.57 |
| HMTKDYVVIYEGLAQTEAVEILGKLQEMGVSAKVDHNDSILVLKDEEDQIRMALATEGYPKS | 0.158 |
| HMTKEEKEKREKYEKLMKKADELVTAKNHKEAVTVLGQAKAYANPQQTKEIEEKIKAQTAELDKG | 0.548 |
| HMTKGVQMFAEQLKRTRQSRHYSQAEIASKLGVTQQAIAKWETGVSTPSPTSISKLSDILGISTDVLLKGA | 0.0396 |
| HMTKIAFPQMLNKYRLQKNLTMEQLAEEVGKTKSTISKWEAGTRSPKIYEIEEIAKYFGVEPQTMMF | -0.107 |
